These are literature values, as cited in paper PMC5871670.

One data set deals with Factor XI (Homo sapiens) (UniProt P03951).
The next data set has as its target uPAR (Homo sapiens) (UniProt Q03405). In words: surface plasmon resonance.
Data set [1] deals with cytokeratin 1 (CK1) (Homo sapiens) (UniProt P04264). In words: surface plasmon resonance.
In the next data set the target is gC1q-R (Homo sapiens) (UniProt Q07021). The data set is described as follows: surface plasmon resonance. In general terms: Surface plasmon resonance follows binding to a sensor surface in real time, without labels.
Chain of UniProt Q07021 (Q07021 74-282): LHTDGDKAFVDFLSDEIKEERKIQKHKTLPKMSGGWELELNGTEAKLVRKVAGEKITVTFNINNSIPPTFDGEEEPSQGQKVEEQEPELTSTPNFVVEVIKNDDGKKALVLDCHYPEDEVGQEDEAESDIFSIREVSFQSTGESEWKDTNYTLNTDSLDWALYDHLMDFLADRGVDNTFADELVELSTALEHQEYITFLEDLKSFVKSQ

Chain of UniProt P04264 (P04264 2-644): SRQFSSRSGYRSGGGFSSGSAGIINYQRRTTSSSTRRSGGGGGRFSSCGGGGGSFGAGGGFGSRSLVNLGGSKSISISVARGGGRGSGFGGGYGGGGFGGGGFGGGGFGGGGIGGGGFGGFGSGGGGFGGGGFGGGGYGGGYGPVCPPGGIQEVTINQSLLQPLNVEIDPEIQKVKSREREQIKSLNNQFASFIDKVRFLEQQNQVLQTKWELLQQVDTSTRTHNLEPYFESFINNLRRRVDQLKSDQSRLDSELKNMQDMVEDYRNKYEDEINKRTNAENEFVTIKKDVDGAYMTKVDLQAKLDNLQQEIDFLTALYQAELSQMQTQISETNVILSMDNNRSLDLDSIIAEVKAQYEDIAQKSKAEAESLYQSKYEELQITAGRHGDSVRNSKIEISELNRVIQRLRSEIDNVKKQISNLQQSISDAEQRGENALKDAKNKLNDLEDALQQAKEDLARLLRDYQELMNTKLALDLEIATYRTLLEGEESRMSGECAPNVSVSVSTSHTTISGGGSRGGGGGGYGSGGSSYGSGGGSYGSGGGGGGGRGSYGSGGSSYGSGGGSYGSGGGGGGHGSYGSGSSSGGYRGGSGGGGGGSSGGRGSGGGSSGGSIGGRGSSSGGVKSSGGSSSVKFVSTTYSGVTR
Chain of UniProt Q03405 (Q03405 23-305): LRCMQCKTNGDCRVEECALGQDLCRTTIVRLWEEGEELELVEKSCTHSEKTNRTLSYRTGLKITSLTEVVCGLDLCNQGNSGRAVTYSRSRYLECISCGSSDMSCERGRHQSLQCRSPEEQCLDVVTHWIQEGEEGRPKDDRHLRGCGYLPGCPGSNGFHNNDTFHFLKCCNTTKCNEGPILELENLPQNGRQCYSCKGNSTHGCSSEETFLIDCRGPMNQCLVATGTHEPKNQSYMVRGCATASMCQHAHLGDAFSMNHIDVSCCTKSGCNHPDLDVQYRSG
Chain of UniProt P03951 (P03951 388-625): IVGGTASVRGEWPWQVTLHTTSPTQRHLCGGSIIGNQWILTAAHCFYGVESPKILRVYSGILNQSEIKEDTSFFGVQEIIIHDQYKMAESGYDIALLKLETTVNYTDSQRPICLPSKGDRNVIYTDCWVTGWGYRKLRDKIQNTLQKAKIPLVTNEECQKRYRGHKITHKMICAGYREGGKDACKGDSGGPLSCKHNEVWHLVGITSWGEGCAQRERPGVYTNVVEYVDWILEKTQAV

With GPIbα (from UniProt P07359), the Kd – broadly, the free concentration of one partner at which half of the binding sites on the other are occupied at equilibrium, for simple one-to-one binding – with Factor XI (Homo sapiens) is 52 nM.

In the case of “high molecular weight kininogen (HK) (from UniProt P01042)”, the Kd with uPAR (Homo sapiens) was 2300 nM; in data set [1], 15 nM; in the data set with gC1q-R (Homo sapiens) it was 0.8 nM.
